Experimental data reported in patent US20260209362A1 (VIB VZW, published 2026).

Experiments:
[1] = molecular target: T1, biotinylated recombinant human IL-12Rβ2 (human, UniProt Q99665 24-622, random biotinylated); experiment: BLI, P.E., off-rate ranking
T1 construct: Recombinant protein produced in-house; also called hIL-12RB2; human IL-12RB2
T1 sequence: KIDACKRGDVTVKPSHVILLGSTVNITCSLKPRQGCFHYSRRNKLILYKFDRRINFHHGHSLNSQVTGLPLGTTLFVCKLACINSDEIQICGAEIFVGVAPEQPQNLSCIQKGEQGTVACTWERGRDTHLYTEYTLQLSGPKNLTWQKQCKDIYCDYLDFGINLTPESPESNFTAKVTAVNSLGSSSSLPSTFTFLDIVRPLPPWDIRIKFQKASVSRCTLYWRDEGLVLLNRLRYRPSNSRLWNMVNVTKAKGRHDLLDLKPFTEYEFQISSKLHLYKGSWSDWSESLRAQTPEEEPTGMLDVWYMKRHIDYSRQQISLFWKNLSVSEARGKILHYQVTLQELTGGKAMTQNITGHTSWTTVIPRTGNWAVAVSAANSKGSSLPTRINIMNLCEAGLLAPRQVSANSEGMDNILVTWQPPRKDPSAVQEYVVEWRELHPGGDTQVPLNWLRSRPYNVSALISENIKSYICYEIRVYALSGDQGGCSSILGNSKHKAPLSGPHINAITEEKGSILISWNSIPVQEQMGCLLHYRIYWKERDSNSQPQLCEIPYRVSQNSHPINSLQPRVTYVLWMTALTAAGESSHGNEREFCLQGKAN

[2] = molecular target: T1, biotinylated recombinant human IL-12Rβ2; experiment: ELISA, P.E., biotinylated antigen
[3] = molecular target: T2, biotinylated recombinant mouse IL-12Rβ2 (mouse, UniProt P97378 24-637, random biotinylated); experiment: ELISA, P.E., biotinylated antigen
T2 construct: Recombinant protein produced in-house; also called mIL-12RB2; mouse IL-12RB2
T2 sequence: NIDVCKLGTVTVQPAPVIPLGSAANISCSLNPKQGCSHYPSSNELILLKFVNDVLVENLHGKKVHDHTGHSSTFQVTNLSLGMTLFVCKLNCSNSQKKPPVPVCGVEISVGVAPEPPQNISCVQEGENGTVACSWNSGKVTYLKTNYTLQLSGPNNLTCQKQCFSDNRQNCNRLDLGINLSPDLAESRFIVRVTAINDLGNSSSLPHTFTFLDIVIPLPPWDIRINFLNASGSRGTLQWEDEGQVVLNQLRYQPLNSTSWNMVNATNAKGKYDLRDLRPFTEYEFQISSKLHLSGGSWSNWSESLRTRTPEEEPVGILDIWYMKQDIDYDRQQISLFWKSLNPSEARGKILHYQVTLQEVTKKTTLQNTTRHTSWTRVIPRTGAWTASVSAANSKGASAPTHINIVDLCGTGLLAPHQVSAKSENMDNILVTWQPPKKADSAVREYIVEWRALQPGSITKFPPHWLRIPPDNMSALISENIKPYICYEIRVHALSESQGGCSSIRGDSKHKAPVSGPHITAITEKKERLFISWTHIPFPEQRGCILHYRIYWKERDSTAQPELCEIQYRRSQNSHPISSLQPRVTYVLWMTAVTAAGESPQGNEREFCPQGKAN

B1: anti-IL-12Rβ2 VHH clone 3CRHS9 (clone ID 20415) (VHH, not shown: small tags and cut ends)
VHH: QVQLQESGGGLVQPGGSLRLSCTASGSIVSIYNMDWYRQAPGNEREWVASITSSGDPYYDGSAKGRFTISRDNAKMTVYLQMNSLKPEDTAVYYCKVPTEKGNYWGQGTQVTVSS
notes: periplasmic extract
- Response [1]: 0.222
- koff [1]: 0.0034 s⁻¹
- ELISA hIL-12RB2/control [2]: 5.08
- ELISA mIL-12RB2/control [3]: 1.09

B2: anti-IL-12Rβ2 VHH clone 3CRHS54 (clone ID 20422) (VHH, not shown: small tags and cut ends)
VHH: QVQLQESGGGLVQPGGSLRLSCTASGSIVSIYNMDWYRQAPGNEREWVASITSSGDPYYDGSAKGRFTISRDNAKMTVYLQMNSLEPEDTAVYFCKVPTEKGNYWGQGTQVTVSS
notes: periplasmic extract
- Response [1]: 0.203
- koff [1]: 0.00272 s⁻¹
- ELISA hIL-12RB2/control [2]: 7.85
- ELISA mIL-12RB2/control [3]: 1.26

B3: anti-IL-12Rβ2 VHH clone 3CRHS100 (clone ID 20428) (VHH, not shown: small tags and cut ends)
VHH: QVQLQESGGGLVQPGGSLRLSCTASGSIFSIYNMDWYRQAPGNQREWVASITPSGDPYYDDSAKGRFTISRDNAKMTVYLQMNSLKPEDTAVYYCKVPTEKGNYWGQGTQVTVSS
notes: periplasmic extract
- Response [1]: 0.209
- koff [1]: 0.00322 s⁻¹
- ELISA hIL-12RB2/control [2]: 5.88
- ELISA mIL-12RB2/control [3]: 1.05

B4: anti-IL-12Rβ2 VHH clone 3CRH68 (clone ID 20388) (VHH, not shown: small tags and cut ends)
VHH: QVQLQESGGGLVQPGGSLRLSCTASGSILSIYNMDWYRQVPGNQREWVASITPSGDPYYDGSVKGRFTISRDNAKMMVYLQMNSLKPEDTAVYYCKVPTEKGNYWGQGTQVTVSS
notes: periplasmic extract
- Response [1]: 0.426
- koff [1]: 0.00444 s⁻¹
- ELISA hIL-12RB2/control [2]: 4.66
- ELISA mIL-12RB2/control [3]: 1.03

B5: anti-IL-12Rβ2 VHH clone 3CRH18 (clone ID 20377) (VHH, not shown: small tags and cut ends)
VHH: QVQLQESGGGLVQPGGSLRLSCTASGNIVSIYNMDWYRQAPGNQREWVASITSSGDPYYDGSAKGRFTISRDNAKMTVYLQMNSLRPEDTAVYYCKVPTEKGNYWGQGTQVTVSS
notes: periplasmic extract
- Response [1]: -0.19
- ELISA hIL-12RB2/control [2]: 5.84
- ELISA mIL-12RB2/control [3]: 1.8

B6: anti-IL-12Rβ2 VHH clone 3CRHS148 (clone ID 20436) (VHH, not shown: small tags and cut ends)
VHH: QVQLQESGGGLVQPGGSLRLSCIASGSIFSIYNMDWYRQAPGNQREWVASITPSGDPYYDDSAKGRFTISRDNAKMTVYLQMNSLKPEDTAVYYCKVPTEKGNYWGQGTQVTVSS
notes: periplasmic extract
- Response [1]: 0.0184
- ELISA hIL-12RB2/control [2]: 3.36
- ELISA mIL-12RB2/control [3]: 0.74

B7: anti-IL-12Rβ2 VHH clone 3CRH27 (clone ID 20379) (VHH, not shown: small tags and cut ends)
VHH: QVQLQESGGGLVQAGGSLRLSCTASGSIVSIYNMDWYRQAPGNEREWVASITSSGDPYYDGSAKGRFTISRDNAKMTVYLQMNSLKPEDTAVYYCKVPTEKGNYWGQGTQVTVSS
notes: periplasmic extract
- Response [1]: 0.138
- koff [1]: 0.00264 s⁻¹
- ELISA hIL-12RB2/control [2]: 10.2
- ELISA mIL-12RB2/control [3]: 1.44

B8: anti-IL-12Rβ2 VHH clone 3CRHS3 (clone ID 20414) (VHH, not shown: small tags and cut ends)
VHH: QVQLQESGGGLVQPGGSLRLSCTASGSIFSIYNMDWYRQAPGNQREWVASITSSGDPYYDASVKGRFTISRDSAKMTVYLQMNSLKPEDTAVYYCKLPTEKGNYWGQGTQVTVSS
notes: periplasmic extract
- Response [1]: 0.327
- koff [1]: 0.00225 s⁻¹
- ELISA hIL-12RB2/control [2]: 6.39
- ELISA mIL-12RB2/control [3]: 1.05

B9: anti-IL-12Rβ2 VHH clone 3CRHS55 (clone ID 20423) (VHH, not shown: small tags and cut ends)
VHH: QVQLQESGGGLVQAGGSLNLSCTASGSIISIYNMDWYRQAPGNQREWVASITSNGDSYYDGSAKGRFTISRDNAKMTVYLQMNSLKPEDTAVYYCKVPTENGNYWGQGTQVTVSS
notes: periplasmic extract
- Response [1]: 0.204
- koff [1]: 0.00296 s⁻¹
- ELISA hIL-12RB2/control [2]: 3.76
- ELISA mIL-12RB2/control [3]: 1.11

B10: anti-IL-12Rβ2 VHH clone 2CRH10 (clone ID 20362) (VHH, not shown: small tags and cut ends)
VHH: QVQLQESGGGLVQAGGSLVLSCAASGSAALIFLMSWYRQAPGKQRELVAEVSRGGSTTYADSVEGRFHISRDNAKNIVDLQMNSLKPEDTAVYYCKADQNYGDSLRSSWGRGTQVTVSS
notes: periplasmic extract
- Response [1]: 0.496
- koff [1]: 0.00524 s⁻¹
- ELISA hIL-12RB2/control [2]: 6.22
- ELISA mIL-12RB2/control [3]: 0.886

B11: anti-IL-12Rβ2 VHH clone 3CRH5 (clone ID 20373) (VHH, not shown: small tags and cut ends)
VHH: QVQLQESGGGLVQAGGSLVLSCAASGSAALIFLMSWYRQAPGKQRELVAEVSRGGSTTYADSVEGRFTISRDNAKNIVDLQMNSLKPEDTAVYYCKADQNYGDSLRSSWGQGTQVTVSS
notes: periplasmic extract
- Response [1]: 0.491
- koff [1]: 0.00337 s⁻¹
- ELISA hIL-12RB2/control [2]: 8.64
- ELISA mIL-12RB2/control [3]: 0.808

B12: anti-IL-12Rβ2 VHH clone 3CRHS184 (clone ID 20441) (VHH, not shown: small tags and cut ends)
VHH: QVQLQESGGGLVQAGGSLVLSCAASGSAALIFLMSWYRQAPGKQRELVAEVSRYGSTTYADSVEGRFTISRDNAKNIVDLQMNSLKPEDTAVYYCKADQYYGDSLRSSWGRGTQLTVSS
notes: periplasmic extract
- Response [1]: 0.515
- koff [1]: 0.00385 s⁻¹
- ELISA hIL-12RB2/control [2]: 4.17
- ELISA mIL-12RB2/control [3]: 1.06

B13: anti-IL-12Rβ2 VHH clone 2CRH73 (clone ID 20369) (VHH, not shown: small tags and cut ends)
VHH: QVQLQESGGGLVQAGGSLRLTCTASGSAALIFLMSWYRQAPGKQRELVAEVSRRGSTTYADSVEGRFTISRDNAKNIVDLQMNSLKPEDTAVYYCKADQYYGDSLRSSWGRGTQVTVSS
notes: periplasmic extract
- Response [1]: 0.547
- koff [1]: 0.00536 s⁻¹
- ELISA hIL-12RB2/control [2]: 4.37
- ELISA mIL-12RB2/control [3]: 0.606

B14: anti-IL-12Rβ2 VHH clone 3CRHS1 (clone ID 20412) (VHH, not shown: small tags and cut ends)
VHH: QVQLQESGGGSVQPGGSLRLSCAASGFTFSTSGMHWFRQAPGKGLEWVSSIGIIVDSSYYASSVKGRFTISRDNAKNTLYLQMNSLKSEDTAVYYCSKDPTGSSRGQGTQVTVSS
notes: periplasmic extract
- Response [1]: 0.3
- koff [1]: 0.00283 s⁻¹
- ELISA hIL-12RB2/control [2]: 6.74
- ELISA mIL-12RB2/control [3]: 1.01

B15: anti-IL-12Rβ2 VHH clone 2CRH80 (clone ID 20371) (VHH, not shown: small tags and cut ends)
VHH: QVQLQESGGGLVQPGGSLRLSCAASGFTFSTSGMHWFRQAPGKGLEWVSSIGIIVGSSYYASSVKGRFTISRDNAKNTLYLHMNSLKSEDTAVYYCSKDVTGSSRGQGTQVTVSS
notes: periplasmic extract
- Response [1]: 0.53
- koff [1]: 0.00353 s⁻¹
- ELISA hIL-12RB2/control [2]: 5.01
- ELISA mIL-12RB2/control [3]: 1.23

B16: anti-IL-12Rβ2 VHH clone 2CRH33 (clone ID 20363) (VHH, not shown: small tags and cut ends)
VHH: QVQLQESGGGSVQPGWSLRLTCAASGFTFSTSGMHWFRQAPGKGLEWVSSISSGGGDTYYTDSVKGRITISRDNAKNTLYLQLNDLKSEDTAVYYCSKDPSGATRGQGTQVTVSS
notes: periplasmic extract
- Response [1]: 0.621
- koff [1]: 0.00491 s⁻¹
- ELISA hIL-12RB2/control [2]: 6.44
- ELISA mIL-12RB2/control [3]: 0.971

B17: anti-IL-12Rβ2 VHH clone 2CRH60 (clone ID 20367) (VHH, not shown: small tags and cut ends)
VHH: QVQLQESGGGSVQPGGSLRLTCAASGFTFSTSGMHWFRQAPGKGLEWVSSISSGGGDTYYTDSVKGRITISRDNAKNTLYLQLNDLKSEDTAVYYCSKDPSGATRGQGTQVTVSS
notes: periplasmic extract
- Response [1]: 0.661
- koff [1]: 0.00533 s⁻¹
- ELISA hIL-12RB2/control [2]: 5.31
- ELISA mIL-12RB2/control [3]: 0.866
